Reference: US10487337B2, “Methods for monocot plant improvement” (Agresearch Limited, priority 2014, dated 2019)

What was measured:
[1] = target: T1, BZR1 (Arabidopsis thaliana, UniProt Q8S307); experiment: BiFC interaction with BZR1 in Nicotiana benthamiana leaves; type: cell-based
T1 construct: expressed in transfected cells; host or cells: Nicotiana benthamiana leaves (Agrobacterium infiltration)
T1 sequence (Q8S307 1-336): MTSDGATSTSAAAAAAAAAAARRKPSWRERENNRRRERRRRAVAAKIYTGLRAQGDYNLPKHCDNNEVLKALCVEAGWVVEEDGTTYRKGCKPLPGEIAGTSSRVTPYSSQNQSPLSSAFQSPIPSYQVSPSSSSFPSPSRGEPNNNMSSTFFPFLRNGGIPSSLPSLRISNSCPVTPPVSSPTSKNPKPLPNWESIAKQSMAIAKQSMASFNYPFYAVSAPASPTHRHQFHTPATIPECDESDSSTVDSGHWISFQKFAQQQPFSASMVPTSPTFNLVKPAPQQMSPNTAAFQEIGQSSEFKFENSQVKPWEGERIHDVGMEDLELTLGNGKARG
Source text: The binary BiFC-Gateway YFP vectors pDEST-VYNE(R)^GW (Venus aa 1-173) and pDEST-VYCE(R)^GW (Venus aa 156-239) with N-terminal fusions, were used to construct the following vectors; pDESTnYFP-BZR1, pDESTnYFP-NINJA, pDESTnYFP-PPD1, pDESTcYFP-BZR1, pDESTcYFP-PPD1, pDESTcYFP-PPD1Δppd, pDESTcYFP-PPD1Δtify and pDESTcYFP-PPD1Δjas*. For transient in planta expression of proteins interacting with PPD1 or BZR, NINJA and TPL were Gateway® sub-cloned into pRSh1, to construct pRSh1-NINJA and pRSh1-TPL. Plasmids for co-immunoprecipitation: A synthesised DNA construct encoding PPD1 with a 3×c-myc C-terminal fusion was sub-cloned into pRSh1 to produce pRSh1-PPD1-3×c-myc, while the NINJA cDNA sequence was sub-cloned into pB7FWG2,0 (Karimi et al 2002, Trends Plant Sci. 7, 193-195) to construct pB7FWG2-NINJA-GFP. When expressed these constructs produced proteins listed in sequences 60, 62, 70 71 72 73 74 75 76 77 78 79: including TOPLESS (TPL), NINJA, Bimolecular Fluorescence (BiFC) nYFP, BiFC cYFP, BiFC nYFP-NINJA, BiFC nYFP-BZR1, BiFC cYFP-PPD1, BiFC cYFP-NINJA, BiFC cYFP-BZR1, BiFC cYFP-PPD1-ppd, BiFC cYFP-PPD1-tify, BiFC cYFP-PPD1-jas*.
Transient BiFC experiments were performed using combinations of pDESTnYFP and pDESTcYFP plasmids, with or without plasmids for the expression of NINJA (pRSh1-NINJA) or TPL (pRSh1-TPL) and Agrobacterium-infiltration of Nicotiana benthamiana leaves. For infiltration Agrobacterium tumefaciens GV3101 strains containing the binary vectors were re-suspended from plates and prepared for transformation as described for the LUC assay. All YFP and expression strains were mixed in ratios of 1:1 (vol/vol) with the addition of strain P19 at 1/10th volume. Five leaf discs were sampled from each infiltrated leaf after 40 h. Two hours prior to sampling for microscopic fluorescence observations leaves were infiltrated with a 1 μg/ml DAPI solution to stain nuclei. YFP fluorescence and DAPI staining was detected using an Olympus Fluoview FV10i confocal laser scanning microscope. Each experiment was repeated twice.

[2] = target: T2, DELLA (RGA1) (Arabidopsis thaliana, UniProt Q9SLH3); experiment: Yeast two-hybrid (Y2H) analysis between PPD and DELLA (RGA1); type: binding; details: PPD1-DBD as bait, 15 mM 3AT
T2 construct: expressed in transfected cells; host or cells: yeast strain MaV203
T2 sequence (Q9SLH3 with tags, fused parts or gaps): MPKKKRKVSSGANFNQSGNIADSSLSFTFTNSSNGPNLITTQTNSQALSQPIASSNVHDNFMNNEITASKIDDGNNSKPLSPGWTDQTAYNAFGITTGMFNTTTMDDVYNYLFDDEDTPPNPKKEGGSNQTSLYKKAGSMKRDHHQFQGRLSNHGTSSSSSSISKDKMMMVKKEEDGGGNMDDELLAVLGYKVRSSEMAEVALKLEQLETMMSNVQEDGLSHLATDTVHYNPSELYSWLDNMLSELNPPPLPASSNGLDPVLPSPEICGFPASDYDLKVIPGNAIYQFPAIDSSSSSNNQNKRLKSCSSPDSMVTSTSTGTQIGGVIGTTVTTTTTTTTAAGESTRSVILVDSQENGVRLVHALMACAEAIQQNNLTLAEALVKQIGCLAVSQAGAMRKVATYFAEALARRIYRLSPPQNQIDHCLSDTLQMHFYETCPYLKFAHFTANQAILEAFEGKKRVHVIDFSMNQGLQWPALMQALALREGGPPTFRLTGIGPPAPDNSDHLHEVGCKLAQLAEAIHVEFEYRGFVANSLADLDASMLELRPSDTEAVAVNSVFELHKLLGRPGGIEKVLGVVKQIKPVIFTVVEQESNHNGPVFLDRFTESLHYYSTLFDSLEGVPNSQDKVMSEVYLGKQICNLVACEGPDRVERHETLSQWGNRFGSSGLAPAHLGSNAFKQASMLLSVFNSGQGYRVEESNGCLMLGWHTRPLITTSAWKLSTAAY
Source text: The ProQuest two-hybrid system (Invitrogen) was used to analyse interactions between PPD1, and RGA1. Full length coding sequences of PPD1, together with truncation or deletion derivatives of PPD1 (PPD1Δppd, PPD1Δtify, and PPD1Δjas*) (FIG. 5), were Gateway sub-cloned into pDEST32 (N-terminal GAL4DBD) or pDEST22 (N-terminal GAL4AD). When translated these generated the following peptide sequences: 55, 65, 66, 67, 68, 7169, which are PPD1-DBD, RGA1, RGA1-AD, PPD1-ppd-DBD, PPD1-tify-DBD, PP1-jas*-DBD respectively.
Combinations of bait and prey constructs were used to co-transform yeast strain MaV203 (Invitrogen), with selection on synthetic dropout (SD) SD/-Leu/-Trp agar plates. Transformed strains were tested for interactions using 10 μl droplets of 1 in 10 and 1 in 100 dilutions on SD/-Leu/-Trp/-His plates with different concentrations of 3-aminotriazol (3-AT) (Sigma). The PPD1-RGA1 interaction was tested with PPD1-DBD used as bait. Transformed yeast was spotted as a ten-fold dilution on control medium (−2) or selective medium (−3) with 15 mM 3AT. Controls were empty vectors, DBD, GAL4 DNA binding domain, AD, GAL4 activation domain (FIG. 5).

B1: PPD1: PEAPOD 1 protein of Arabidopsis thaliana, SEQ ID NO: 1 (protein, listed as Arabidopsis thaliana)
chain: MDVGVSPAKSILAKPLKLLTEEDISQLTREDCRKFLKDKGMRRPSWNKSQAIQQVLSLKALYEPGDDSGAGIFRKILVSQPVNPPRVTTTLIEPSNELEACGRVSYPEDNGACHRMDSPRSAEFSGGSGHFVSEKDGHKTTISPRSPAETSELVGQMTIFYSGKVNVYDGIPPEKARSIMHFAANPIDLPENGIFASSRMISKLISKEKMMELPQKGLEKANSSRDSGMEGQANRKVSLQRYREKRKDRKFSKAKKCPGVASSSLEMFLNCQPRMKAAYSQNLGCTGSPLHSQSPESQTKSPNLSVDLNSEGI
- interaction with BZR1 ([1]; fully expanded leaves, co-expression of NINJA): restored
- interaction with BZR1 ([1]; pavement cells of immature Nicotiana benthamiana leaves): appears to interact with BZR1 in the nucleus
- interaction with DELLA (RGA1) [2]: can directly bind to DELLA
